This note sets out measurements from paper PMC10583602.

Assay [1] concerns the target TnsC with the apical loop E69-D75 deleted (Vibrio cholerae). The experiment in a line: SEC. For orientation: SEC sorts molecules by how far they enter the pores of the column.
For assay [2], the target named is TnsC(ΔA106–A113) (Vibrio cholerae). The experiment in a line: SEC.
Assay [3] addresses Vibrio cholerae TnsC (VchTnsC), full length, tag cleaved (Vibrio cholerae). The experiment in a line: SEC.
For assay [4] the target is unchanged. Kind of assay: cryo-EM structure.

“TnsC with the apical loop E69-D75 deleted (natural protein)” gave a stoichiometry N in assay [1] of 7.

In turn, TnsC(ΔA106–A113) (natural protein) registered a stoichiometry N in assay [2] of 7.

With “Vibrio cholerae TnsC (VchTnsC), full length, tag cleaved (natural protein)”, the stoichiometry N in assay [3] and in assay [4] was 7 in each case.

A word on the stoichiometry N: it is the number of molecules, sites or subunits per partner or assembly.
